B1: MAb 3H7A9 (antibody, V domains shown)
VH: EVQLQQSGAELVKPGASVKLSCTASGFNIKDTYMHWVKQRPEQGLEWIGRIDPANGNTQYGPKFQGKATITADTSSNTAYLQLSSLTSEDTAVYYCARGGIFYYYGSSYSYAMDYWGQGTSVTVSS
VL: DIQMTQTTSSLSASLGDRVTISCRASQDISNYLNWYQQKPDGTVTLLIYYTSRLHSGVPSRFSGSGSGTDYSLTISNLEQEDIATYFCQQGNTLPRTFGGGTKLEIK
B2: MAb 8A6F2 (antibody, V domains shown)
VH: DVQLQESGPDLVKPSQSLSLTCTVTGYSITSGYNWHWIRQFPGNKLEWMGYIHYSGGTNYNPSLKSRISITRDTSKNQFFLQLNSVTTEDTATYYCARRTGTVPFAYWGQGTLVTVSA
VL: EIVLTQSPALMAASPGEKVTITCSVSSSISSSNLHWYQQKSETSPKPWIYGTSNLASGVPVRFSGSGSGTSYSLTISSMEAEDAATYYCQQWSSYPLTFGGGTKLEIK
notes: also called biotinylated 8A6F2; 86FA2
B3: MAb 6D4B10 (antibody, V domains shown)
VH: EVQLQQSGPELVKPGASVKMSCKASGYTFTSYVMHWVKQKPGQGLEWIGYLNPYNDDTKYNEKFKGKATLTSDKSSSTAYMELSSLTSEDSAVYYCAYGPPYALDYWGQGTSVTVSS
VL: QIVLTQSPAIMTASLGERVTMTCTASSSVSSSYLHWYQQKPGSSPKLWIYSTSNLASGVPARFSGSGSGTSYSLTISSMEAEDAATYYCHQYHRSPYTFGGGTKLEIK
notes: also called biotinylated 6D4B10

Legend:
[1] = biological target: SUMO*-DENV-4 NS1 fusion protein (not stated | dengue virus 4 (DENV-4), strain H421) (UniProt Q58HT7); assay: SDS-PAGE
[2] = biological target: T1, SUMO*-DENV-4 NS1 fusion protein (Dengue virus 4 strain H241 (printed …, UniProt Q58HT7)); assay: ELISA; conditions: one partner purified
T1 construct: also called SUMO*-DENV-4 rNS1 fusion protein; SUMO*-NS1 fusion protein
T1 sequence (Q58HT7 whole entry, the tested form may be a part): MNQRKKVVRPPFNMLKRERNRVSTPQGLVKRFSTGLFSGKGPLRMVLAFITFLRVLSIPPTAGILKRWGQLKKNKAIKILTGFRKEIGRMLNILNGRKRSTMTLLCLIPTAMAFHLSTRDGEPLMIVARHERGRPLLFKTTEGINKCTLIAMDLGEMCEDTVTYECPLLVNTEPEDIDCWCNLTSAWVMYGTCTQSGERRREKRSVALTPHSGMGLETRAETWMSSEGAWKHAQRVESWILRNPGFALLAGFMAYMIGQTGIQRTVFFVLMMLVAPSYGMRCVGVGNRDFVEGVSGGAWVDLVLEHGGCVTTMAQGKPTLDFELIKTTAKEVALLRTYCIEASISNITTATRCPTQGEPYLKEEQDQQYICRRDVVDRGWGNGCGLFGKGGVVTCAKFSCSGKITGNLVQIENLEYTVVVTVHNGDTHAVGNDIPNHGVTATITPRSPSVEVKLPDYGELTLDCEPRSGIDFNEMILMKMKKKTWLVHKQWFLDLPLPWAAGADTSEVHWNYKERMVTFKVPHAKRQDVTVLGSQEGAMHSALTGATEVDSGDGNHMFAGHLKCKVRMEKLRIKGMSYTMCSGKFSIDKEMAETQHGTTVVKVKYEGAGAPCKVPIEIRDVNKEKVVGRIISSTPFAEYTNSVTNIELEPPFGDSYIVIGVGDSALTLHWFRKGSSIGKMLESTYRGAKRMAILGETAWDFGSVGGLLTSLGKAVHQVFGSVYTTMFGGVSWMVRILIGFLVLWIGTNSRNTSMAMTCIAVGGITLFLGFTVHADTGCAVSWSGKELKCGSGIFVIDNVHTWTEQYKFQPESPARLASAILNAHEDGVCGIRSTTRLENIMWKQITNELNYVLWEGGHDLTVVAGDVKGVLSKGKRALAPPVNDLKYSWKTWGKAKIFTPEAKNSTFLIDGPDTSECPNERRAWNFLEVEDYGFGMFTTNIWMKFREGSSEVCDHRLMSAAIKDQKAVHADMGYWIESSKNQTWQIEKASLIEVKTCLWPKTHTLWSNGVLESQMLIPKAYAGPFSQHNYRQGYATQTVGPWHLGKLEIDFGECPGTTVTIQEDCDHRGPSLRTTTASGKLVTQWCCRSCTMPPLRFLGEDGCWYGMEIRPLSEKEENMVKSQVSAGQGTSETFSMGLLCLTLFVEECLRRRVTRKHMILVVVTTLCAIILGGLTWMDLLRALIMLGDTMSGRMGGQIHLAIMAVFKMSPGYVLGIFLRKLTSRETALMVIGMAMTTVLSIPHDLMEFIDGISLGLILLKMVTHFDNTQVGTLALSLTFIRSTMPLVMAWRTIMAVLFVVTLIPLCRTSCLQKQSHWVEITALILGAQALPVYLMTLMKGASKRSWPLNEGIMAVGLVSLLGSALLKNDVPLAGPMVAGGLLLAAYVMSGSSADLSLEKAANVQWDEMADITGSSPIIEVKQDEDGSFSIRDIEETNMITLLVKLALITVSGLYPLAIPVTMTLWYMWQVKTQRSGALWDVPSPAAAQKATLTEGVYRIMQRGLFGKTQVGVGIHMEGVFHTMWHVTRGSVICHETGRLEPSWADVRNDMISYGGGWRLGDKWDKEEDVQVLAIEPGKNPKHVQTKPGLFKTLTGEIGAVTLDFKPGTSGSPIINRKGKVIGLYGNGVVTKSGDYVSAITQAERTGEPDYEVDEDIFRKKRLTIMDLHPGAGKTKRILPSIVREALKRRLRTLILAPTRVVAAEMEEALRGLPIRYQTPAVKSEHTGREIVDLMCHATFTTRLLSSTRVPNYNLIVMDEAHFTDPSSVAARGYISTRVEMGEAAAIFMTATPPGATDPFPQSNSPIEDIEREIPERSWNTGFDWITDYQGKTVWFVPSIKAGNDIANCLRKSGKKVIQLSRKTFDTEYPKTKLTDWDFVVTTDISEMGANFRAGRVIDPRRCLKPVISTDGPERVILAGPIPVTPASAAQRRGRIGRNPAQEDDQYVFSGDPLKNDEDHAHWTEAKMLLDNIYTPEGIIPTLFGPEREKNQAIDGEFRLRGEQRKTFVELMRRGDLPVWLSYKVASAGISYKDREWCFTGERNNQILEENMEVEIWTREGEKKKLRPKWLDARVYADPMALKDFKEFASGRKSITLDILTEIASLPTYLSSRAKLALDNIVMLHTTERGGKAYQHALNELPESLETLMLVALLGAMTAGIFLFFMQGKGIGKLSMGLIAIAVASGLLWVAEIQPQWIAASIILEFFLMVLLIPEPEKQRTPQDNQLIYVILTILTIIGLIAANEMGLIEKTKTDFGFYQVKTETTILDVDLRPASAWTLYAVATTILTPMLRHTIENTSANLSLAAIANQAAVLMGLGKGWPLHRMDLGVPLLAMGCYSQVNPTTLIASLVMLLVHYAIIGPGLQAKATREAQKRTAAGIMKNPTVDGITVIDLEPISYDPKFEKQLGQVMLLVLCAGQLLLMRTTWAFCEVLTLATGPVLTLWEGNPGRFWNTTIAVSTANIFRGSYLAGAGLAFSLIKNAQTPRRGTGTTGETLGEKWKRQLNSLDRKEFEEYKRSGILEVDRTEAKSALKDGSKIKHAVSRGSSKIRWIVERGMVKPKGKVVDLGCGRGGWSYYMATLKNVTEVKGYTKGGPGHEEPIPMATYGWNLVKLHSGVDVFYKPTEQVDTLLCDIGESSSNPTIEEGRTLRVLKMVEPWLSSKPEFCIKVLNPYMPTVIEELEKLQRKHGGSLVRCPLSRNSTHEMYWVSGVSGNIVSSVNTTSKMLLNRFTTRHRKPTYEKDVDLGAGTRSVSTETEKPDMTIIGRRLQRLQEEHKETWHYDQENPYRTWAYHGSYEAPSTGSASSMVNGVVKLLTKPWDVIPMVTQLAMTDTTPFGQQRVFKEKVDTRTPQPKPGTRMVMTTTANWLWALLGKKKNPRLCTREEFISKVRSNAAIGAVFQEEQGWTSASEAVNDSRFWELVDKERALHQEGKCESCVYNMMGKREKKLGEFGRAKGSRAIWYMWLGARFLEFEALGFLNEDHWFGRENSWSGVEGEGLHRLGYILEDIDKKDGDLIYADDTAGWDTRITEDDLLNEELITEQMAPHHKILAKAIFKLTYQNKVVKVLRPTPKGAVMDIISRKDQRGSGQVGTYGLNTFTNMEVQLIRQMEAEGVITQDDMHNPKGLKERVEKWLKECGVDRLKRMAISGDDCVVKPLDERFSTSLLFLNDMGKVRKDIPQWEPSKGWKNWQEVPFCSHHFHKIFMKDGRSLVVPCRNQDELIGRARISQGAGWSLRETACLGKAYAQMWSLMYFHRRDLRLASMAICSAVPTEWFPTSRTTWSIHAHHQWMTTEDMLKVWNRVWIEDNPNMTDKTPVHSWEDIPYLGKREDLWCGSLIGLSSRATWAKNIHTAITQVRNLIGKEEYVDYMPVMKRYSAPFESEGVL

[3] = biological target: T2, recombinant DENV-4 non-structural protein 1 (unfused commercial DENV-4 rNS1) (Dengue virus 4, strain  …, UniProt P09866); assay: western blot; conditions: one partner purified
[4] = biological target: T2, recombinant DENV-4 non-structural …; assay: ELISA; conditions: one partner purified

Molecule	stoichiometry N [1]	binding result [2]	binding result [3]	binding result [4]
SUMO*-DENV-4 NS1 fusion protein (from UniProt Q58HT7 775-1126)	2			
B1		binds	binds	
B2		binds		
B3		binds		binds

Source: publication PMC5801815 (Virology Journal, 2018)
